Our source for the amyloid nucleation score values is the supplement of paper PMC12042874.

The data set in a line: amyloid nucleation score (Sup35N fusion, yeast selection) (log enrichment); library NNK3; higher = more nucleation; inactive = no reads after selection. The gist of the method:
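The nucleation score is a DiMSum log enrichment of output over input reads, centred on the mode score of non-aggregating sequences. Sequences under 100 input reads were excluded, and reads came from Illumina sequencing of plasmid inserts. Psi-negative yeast expressing Sup35N fused to peptides of 20 random codons were induced with 100 μM copper sulfate for 24 hours and grown 7 days at 30°C on medium lacking adenine and uracil. Random libraries had three technical output replicates.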

± gives the uncertainty stated by the source.

Take VIMGDINQVAQPGDLRRFRC: the amyloid nucleation score is -0.423 ± 1.4.
Under MSVQGDHYFPT stands “inactive”.
To VICKAPGRPGHLCCKCIAVH belongs “inactive”; to WLSLFVIMPCLWGFCSMDSN, 1.47 ± 0.11.
Under NFYYSSAFLSVLFPFSACFP stands 2.22 ± 0.084; under NDGFMDVVNTSGSNLCMARN, “inactive”; under SGDPSSLEDIGFVIYWRIYI, “inactive”.
Turning to FELRVV, the amyloid nucleation score entry is “inactive”.
Under TVSGQLIT stands “inactive”; under TMHYFQNTAIDRYEMTAP, “inactive”; under VVRVHIRCTAFYKAPSYWGS, 0.987 ± 0.11.
Under ESFVGEGDRSWSGHGNFITV stands “inactive”; under CHASRSGIKLLLSIAAWTCI, “inactive”; under RANESTLM, “inactive”.
Under FISRVMGSSR stands “inactive”; under SMCDMYYLVACTPHMIVQLY, -0.111 ± 0.69.
RSTSVWRFLWMLHVFSKLLH: the amyloid nucleation score result was “inactive”.
To SDLCRSMSNQFSELSSNDFV belongs “inactive”.
Under MFLWRDCNGTN stands “inactive”; under AFLPMCGLDFKWRYV, -0.22 ± 1.4; under NQMEN, 0.843 ± 0.36.
Under CDAWILFFWHVVNISYRVDK stands “inactive”; under YDVFLIL, “inactive”.
MIFKKDSLGMILHFHHYFYN: the amyloid nucleation score result is “inactive”.
As for RGINDDSPF, the amyloid nucleation score entry is “inactive”.
Under FRMNSLRVSLMESVCSSHT stands 1.1 ± 0.11; under RTWNVESFREFGCFKINLGP, “inactive”; under DRAFYYTLKYLRD, “inactive”.
In the case of NVSRRGC, the amyloid nucleation score result is “inactive”.
To KPRVMFMISARVFVNYRICS belongs “inactive”.
Under QLGDMNAAALITATASRLVM stands “inactive”; under SMSIYPVCLTF, “inactive”.
Under TYTYIGIKAFCDLYRSKMGV stands “inactive”; under NVANRGLLHMELSVNKDWAM, 0.699 ± 0.16; under FGMVFHISIACKWTGFSMR, “inactive”.
Take VMFCFKRHLL: the amyloid nucleation score came out at 0.922 ± 0.15.
To TKHPLYM belongs “inactive”; to RSYLHCSTK, “inactive”.
Under TSSNRVLVIPVELMIPWRF stands -0.299 ± 1.1; under CNYCGPEAFGILFDYWTMSY, “inactive”; under ANAFTGIRCVQVRRRCSLDM, “inactive”.
To FPWFTEASPPEMKLDK belongs 0.816 ± 0.23.
For TYTSVGETS, the amyloid nucleation score entry is “inactive”.
Regarding HQKKMRFALR, the amyloid nucleation score result was “inactive”.
SHPYLT showed an amyloid nucleation score of 0.071 ± 0.35.
To ERLIPLPHISVIS belongs “inactive”; to SYWLQSPYDTESMSGFLLQI, “inactive”.
To MSFVSSRGVNKWQVETGLLE belongs “inactive”; to TVWELM, -0.068 ± 0.33; to WYSNYCMIDRHGVFEVVSCM, “inactive”.
To KDNPLSCLVKVNVWTKLQEG belongs 1.16 ± 0.12; to LFVMGRFVSFALFTWKTDNV, “inactive”; to PCKDLQTYWFENWCQRFGR, “inactive”.
With TLSKILLLSRYLYTRLKVRL, the amyloid nucleation score entry was “inactive”.
To YFYGLQWPCD belongs “inactive”.
